T1: FruA-His6 (Myxococcus xanthus) (UniProt Q1D7Q3)
T1 sequence: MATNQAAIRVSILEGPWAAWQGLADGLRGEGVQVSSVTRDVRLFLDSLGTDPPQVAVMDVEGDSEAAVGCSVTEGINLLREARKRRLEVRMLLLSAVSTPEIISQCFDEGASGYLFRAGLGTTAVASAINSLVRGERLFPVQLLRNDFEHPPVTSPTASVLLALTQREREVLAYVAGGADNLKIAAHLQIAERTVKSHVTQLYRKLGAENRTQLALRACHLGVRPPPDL

T2: His10-MrpC2 (Myxococcus xanthus, UniProt Q1D244 26-248)
T2 sequence: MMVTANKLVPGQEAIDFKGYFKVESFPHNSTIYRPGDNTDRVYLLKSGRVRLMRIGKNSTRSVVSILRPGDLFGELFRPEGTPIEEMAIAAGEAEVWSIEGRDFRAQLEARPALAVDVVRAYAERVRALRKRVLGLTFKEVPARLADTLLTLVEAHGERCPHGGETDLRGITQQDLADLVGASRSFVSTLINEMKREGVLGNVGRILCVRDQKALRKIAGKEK

B1: MXAN_0524 probe A (dsDNA)
DNA 1: CCGTCCCAACAACTGATACACAGTCAACGTTTCTCCATCC
DNA 2: GGATGGAGAAACGTTGACTGTGTATCAGTTGTTGGGACGG
B2: MXAN_0524 probe B (dsDNA)
DNA 1: CACAGTCAACGTTTCTCCATCCAGCCCACCTGTCCTCCAC
DNA 2: GTGGAGGACAGGTGGGCTGGATGGAGAAACGTTGACTGTG
B3: MXAN_0524 probe C (dsDNA)
DNA 1: CATCCAGCCCACCTGTCCTCCACTGAACACGTACTGGCAC
DNA 2: GTGCCAGTACGTGTTCAGTGGAGGACAGGTGGGCTGGATG

Experiments:
[1] = target: T1, FruA-His6 (Myxococcus xanthus); assay: EMSA; conditions: 2 nM 32P-labeled DNA, 25 C, 15 min, buffer as in cited ref 127 (not given)
His10-MrpC2 = target: T2, His10-MrpC2; assay: EMSA; 1 uM protein; EMSA, 2 nM 32P-labeled DNA, 25 C, 15 min; buffer as in cited ref 127 (not given); conditions: protein: recombinant; tags: N-terminal His10; chain copies: 2; label: 32P; blunt

Molecule | binding [1] | binding result (His10-MrpC2)
CAAGGTGATGATGTGCGTCGAGGCTATCGGCCATGTGCGGGAGCGTCAATGTTCGGACCGGGCGGAATTCCGGCTGCCCGGGGAGCGGGCAAGCGCCGTCACACAGCCGACGTTTCCGTCACTGAGGGTACGTCGGGTACGTCACTGGCTCGACGGAGATGGGCGGCCAGGAGTGCGGCGTGCGCGGCGCGGGCGGGAGCGAATACAGCGGCTCG (double strand) [frzS PCR] | no binding | 
CCAGGGAACGTAGAAGTCTGGCAGTTCGAATGGCTGCTTGTTTTTCGCCGTACTCATGGACGCCCCTCGTTGAACTCAGGGGGGCGTTATAGTTAGGCGCTGAACACTTATCCAAGTGTTTCTTGCATAAAAGATTCTCTGGAGAAGTCGCGATTTGCCTGCTGGCGCACGGATTTAGCTCCATCCGTGCGCCGTATTGCTC (double strand) [MXAN_6247 PCR] | binds | 
CGAGCTCCTGTGAACCGAAGTCATGCTGCTGGTAGGAGCCCGCTGGGTCTGCCCAGACCTCGCCAATGAGGCGCTGGTCCATTAATTGCTCAACGCAACAACTTGCGAAGCAGTCTGTCGGCTACTTGACCGTGCTTGCCAGTGAATGAGAAGTGACGCCTGCGTGCTGACCGTAATGGGACAGGCGGGGACCATGTATATGAGGTGGAAGAAGC (double strand) [MXAN_5802 PCR] | no binding | 
CTCGTTTACGAACTCGTCTGGTCCAAGTACCTCGGGAATGTCCTGGGGAACAGCGGCCAGGCGCATGCCGTGGTGCTCGCCACGTTCATGGGAGGGCAAGCGCTGGGCGCATTTGTCTTCGGGCGGACAGCCGACCGGGCAAAGAACCCCCTGGCCCTTTACGGCCTGCTGGAGCTGGGCGTGGGCCTGTACGCGCTGGTCTTC (double strand) [mrpA PCR] | binds more weakly | 
GATTAGCACTACGCATGCCAACCCAGGTGCGCACTCCAAGCCCCCCAATTCTCAAGGCTTGGAACAATCCCCTCGGCGAGGATGGGTCCAGGGCTGACAAAATTCGGCAGTGACGCTGACGATAACTGTCGATCAGCCTACGCATCCGAAGCGCTCCCGGGCTCCAAGTCATCCGTCAGCCCATGCTTGGCCAACCGGTAGCGGAATGAACGGAACGAAAG (double strand) [pilA PCR] | no binding | 
GGATTTGCCTTTGCACCTCCAGAACCACCAGTGGGTGAAACAATGTCAACGGGAGTCCTTCGCCACGGCCTTGATTGTCCCTTAGCAAACACAGTGAACCGCACAGCGACAAGGCAGGAATTCGCCCACGCTGGACTCACGGCACGTCGGAAGCATCTCTTGGGAATCAAGAATTGAGTGAGGTCCATCGCCCTGCAATCGATGGCAAAGAG (double strand) [pkn8 PCR] | no binding | 
GGCGAACGGGACTTTCCTTCTCCAAGGTTCGTGCCAGCGGGAATTGAAATGCCGCCGGGACAACACCTCCTGAAATGCCGGGTACTTAGCGCTACAGGCCCGCACCAGAGCCCGTTCTGTGTCCAAAACCTGAAACAGAACGTTCAAACAGTCTGATCAATTTGAACGAAACGTTCAAACCGGGGGCATGAGTGTCGGAGCAG (double strand) [mrpC upstream PCR] | no binding | 
GTACCAACTCGCGCACGTCGGGTGCGGGCAGTCCGTAGCGCTGGCCGTTCAGGGTGAACAGCAGCACCTCCGTGGGTGCGGGGGTCATGTCCTGGGACATAAGACGTGGGCGTGGCCACTGTCGAACATTGATGTCGGCCCGCGGTCGCGGTGTCCACCAGTCCTCAGTGGAGGCAGGAGGAGGGGCCCATGGTTCGGGGGGAACACGACAGGTGCTCGCTGTGC (double strand) [cheW6a PCR] | binds | 
GTCTTCCTTGTTGATGAGCCCCGGAGGGGCCATCGCGGTGGGCATAGCGCTCGCAGCGGAGCCCTTCTTCTTCTCATCGGACATGAAATTCAGCCTTTTCTCTTCGACAACCAGTGAACATTTCCAGGTTTTCTGCGGCGGATGAACCAACGTAACAACCAAAACGGACATGGCAAACGCAGTGTGCGTTTTTCCGCCCCCCGTCACCTCTCCAGGGTTCCTCGGAAGTC (double strand) [bsgA PCR] | binds | 
GTGGGCATCCACGAAGCGCGCCCCGGACTGGTGCGCCCCCTGCTGTCGTGCACGCGGGAGGAGGTGGTGGCCTTCCTGGCGGAGCAGGGTGTCGCCTATGTGACAGACCCGATGAACACCGACCCTGTCCACTTCCGGACGCGCGTTCGCCTTGGAGTGCTACCCGCCCTGTCGCGCGCCGCTGGCTTCGCGGTGGAGG (double strand) [MXAN_4360 PCR] | binds more weakly | 
B1 |  | binds
B2 |  | no binding
B3 |  | binds

Source: publication PMC4320627, “Transcription factor MrpC binds to promoter regions of hundreds of developmentally-regulated genes in Myxococcus xanthus”
